Assay results published in patent CN113549147A.
Changes are numbered by the printed parent chain.

Target: 柯萨奇A6型病毒(CVA6)病毒颗粒抗原, 毒株TW-2007-00141 (Coxsackievirus A6 (CVA6), strain TW-2007-00141)
Assay: cell-based or functional assay

B1: 单克隆抗体6C8 (antibody, V domains shown)
VH: EVQLQQSGPELVRPGASVRISCKASGYSFTGYYMHWVKQSHVKSLEWIGRINPHNGVPNYNQNFKDKATLTVDKSSTTAYMELHSLTSEDSAVYFCVSGSSDFDYWGRGATLTVS
VL: DIQMTQSPSSLSASLGERVTLTCRASQEIGAFLGWLQQKPDGIIKRLIYAASVLDSGVPKRFSGSRSGSDYSLTISSLESEDFADYYCLQYVSFPRTFGGGTKLEIK
中和效价 (最大稀释倍数 (可以抑制50%以上细胞孔病变)): 4096

B2: 单克隆抗体2B5 (antibody, V domains shown)
VH: EVHLQQSGPELVKPGSSVKISCKASGYSFTGYYIHWVKQNHLKSLTWVGRINPHNGVADYDQILRGRAALTVDKSSTTAYLEFHSLTYEDSAVYFCVSGSNDFDYWGQGTPLTVS
VL: B1 VL with T20S, G30R, A31S, I43T, A51V, V53N, V92I
中和效价 (最大稀释倍数 (可以抑制50%以上细胞孔病变)): 4096

B3: 单克隆抗体4D6 (antibody, V domains shown)
VH: EVQLQQSGPELVKPGASVKISCKASGYSFTGYYMHWVKQSHEKSLEWVGRINPHNGVADYNQILKGKAALTVDKSSTTAYMEFHSLTSEDSAVYYCVSGSSDFDYWGQGTPLTVS
VL: B1 VL with T20S, G30R, A31S, I43T, A51V, V53N, V92I
中和效价 (最大稀释倍数 (可以抑制50%以上细胞孔病变)): 8192
